Laboratory results: patent US8415106B2, “Cell-based screen for agents useful for reducing neuronal demyelination or promoting neuronal remyelination” (Myelin Repair Foundation, Inc., priority 2005, dated 2013)

Tests used:
[1] = test system: ER stress markers (BIP, CHOP, p-eIF-2α); test: ER stress markers in the corpus callosum during remyelination (real time PCR, Western blot); type: in vivo, mice
Experimental: Repression of remyelination by IFN-γ is associated with ER stress. […] To determine whether IFN-γ interferes with endoplasmic reticulum (ER) function in remyelinating oligodendrocytes, the expression of ER stress markers was monitored in the corpus callosum of mice expressing IFN-γ. The study was performed using the transgenic mice described in Example 1.
The level of mRNA encoding ER stress associated genes binding immunoglobulin protein/78 KDa glucose regulated protein (BIP/GRP78) and the CAATT enhancer-binding protein homologous protein/growth and DNA damage protein 153 (CHOP/GADD153), was determined using real time PCR, as described in Example 1 in the corpus callosum of the cuprizone treated mice of Example 1. The probes, sense and antisense primers that were used were: […]
The level of phosphorylated eIF-2α, which inhibits nucleotide exchange on the eIF-2 complex and attenuates most protein synthesis, was analyzed by Western blot, and the expression was colocalized by immunostaining CC1 antibodies as described above. Western blot analysis was performed as follows. The corpus callosum from 3 mice was rinsed in ice cold phosphate-buffered saline (PBS) and pooled, and immediately homogenized in 5 volumes of Triton X-100 buffer (20 mM HEPES pH 7.5, 150 mM NaCl, 1% Triton X-100, 10% glycerol, 1 mM EDTA, 10 mM tetrasodium pyrophosphate, 100 mM NaF, 17.5 mM β-glycerophosphate, 10 mM phenylmethylsulfonyl fluoride, 15 μg/ml aprotonin, and 6 μg/ml pepstatin A) using a motorized homogenizer. After incubation on ice for 15 min, the extracts were cleared by centrifugation at 14,000 rpm twice for 30 min each. The protein content of each extract was determined by protein assay (Bio-Rad). The extracts (40 μg) were separated by sodium dodecyl sulfate-polyacrylamide gel electrophoresis and transferred to nitrocellulose. […] The following primary antibodies were used: anti-eIF-2α (1:500; Santa Cruz, Santa Cruz, Calif.), anti-p-eIF-2α (1:1000, Cell signaling Technology), anti-CHOP (1:500; Santa Cruz) and anti-actin (1:1000; Sigma, St Louis, Mo.).

rat oligodendrocytes = test: IFN-γ-induced apoptosis in cultured rat oligodendrocytes (TUNEL/CNP, caspase-3 activity); type: cell-based
Experimental: (§1) To test whether apoptosis of oligodendrocytes that is induced by INF-γ affects ER stress, the effect on the morphology, the degree of apoptosis and the expression of ER markers was studied in a culture of oligodendrocyte precursor cells (OPC). Oligodendrocyte progenitors were cultured from neonatal rat brains (Baerwald, et al. (1998) J. Neurosci. Res. 52: 230-239). A mixed glial culture was grown in flasks in medium containing 10% fetal bovine serum (FBS), and when the astrocyte layer became confluent (10-14 days), oligodendrocyte progenitors were separated from astrocytes and microglia using an orbital shaker. Cells, greater than 95% of which were A2B5 positive, GFAP negative and CD11b negative, were cultured in 0.5% FBS containing medium, which also contained PDGF (10 ng/ml) and FGF (5 ng/ml) (both from R&D Systems, Minneapolis, Minn.). Then cells were switched to 0.5% FBS medium without PDGF and FGF for differentiation. […]
The level of apoptosis of the OPC cells was determined by double staining CNP (1:200; Sternberger Monoclonals, Lutherville, Md.) and TUNEL using the ApopTag Kit (Serologicals Corp., Norcross, Calif.) and following the manufacturer's instructions. Apoptosis was also evaluated by measuring the activity of caspase-3 in oligodendrocyte lysates using the Fluorimetric Caspase 3 Assay Kit (Sigma, St. Louis, Mo.), according to the manufacturer's instructions.

[2] = test system: ER stress markers (BIP, CHOP, p-eIF-2α, caspase-12); test: ER stress markers in IFN-γ-treated cultured rat oligodendrocytes (real-time PCR, Western blot); type: cell-based
Experimental: as §1, with “differentiation. After 5 days in the differentiating medium, approximately 40% of cells were positive for myelin protein 2′3′-cyclic nucleotide 3′-phosphodiestaerase (CNP). 70 U/ml recombinant rat IFN-γ (Calbiochem, La Jolla, Calif.) was added to the cells that had been allowed to differentiation for 5 days.[…]” for “differentiation.”
To determine whether INF-γ affects ER function, the RNA expression of ER markers binding immunoglobulin protein (BIP), CAAT enhancer binding protein homologous protein (CHOP), and caspase 12 was determined using real time PCR. […]
To determine the effect of INF-γ on the level of phosphorylated eIF-2α and caspase 12 proteins, western blot analysis was performed using the following antibodies anti-eIF-2α (1:500; Santa Cruz), anti-p-eIF-2α (1:1000, Cell signaling Technology), anti-caspase-12 (1:500; Santa Cruz) and anti-actin (1:1000; Sigma, St Louis, Mo.), and according to the following protocol. […] The protein content of each extract was determined by protein assay (Bio-Rad). […]

[3] = DOX− compared to control DOX+ mice

B1: IFN-γ: pleotropic cytokine secreted by activated T lymphocytes and natural killer cells; recombinant rat IFN-γ added to cultures or transgenically expressed in mouse CNS (protein, UniProt P01581 23-156, looked up)
Interferon gamma: QGTLIESLESLKNYFNSSSMDAMEGKSLLLDIWRNWQKDGNTKILESQIISFYLRLFEVLKDNQAISNNISVIESHLITNFFSNSKAKKDAFMSIAKFEVNNPQIQHKAVNELIRVIHQLSPESSLRKRKRSRC
level of mRNA for BIP [1, 3]: approximately 2 fold
level of mRNA for CHOP [1, 3]: approximately 2 fold
level of phosphorylated eIF-2α (Western blot) ([1]; DOX− double transgenic mice): approximately 1.8 fold
level of the CHOP protein (Western blot) ([1]; DOX− double transgenic mice): approximately 1.7 fold
caspase-3 activity in the cell lysates (rat oligodendrocytes; 70 U/ml IFN-γ): markedly increased
TUNEL and CNP double labeling (apoptosis) (rat oligodendrocytes; 70 U/ml IFN-γ for 48 h, oligodendrocytes differentiated 5 days): induced apoptosis in a significant number of oligodendrocytes
caspase-12 expression (real-time PCR) ([2]; 70 U/ml IFN-γ): induction of caspase-12 was observed
level of phosphorylated eIF-2α (Western blot) ([2]; 70 U/ml IFN-γ, oligodendroglial cultures): significantly elevated
level of the active fragment of caspase-12 (Western blot) ([2]; after 48 h of IFN-γ treatment): strongly elevated
